Article PMC5935684

Target: nucleosome core particle assembled on a 149 bp long 601 DNA sequence (Xenopus laevis)
Assay: cryo-EM micrographs and 2D classification; NCPs on 149 bp 601 DNA at 150 mM NaCl; particles with a second NCP in the proximity counted by 2D classification (Relion)

- percent of particles with a second NCP in the proximity: 20%
Substance: nucleosome core particle assembled on a 149 bp long 601 DNA sequence (complex)
